Measurements: publication PMC11890025
pKd: −log10 of the molar value.

Tested on: SaAREB6-His (Santalum album)
Assay: MST
Details: MST: 20 nM labelled SaAREB6, 150 mM NaCl, 20 mM Tris-HCl pH 8.0, 25 C; EMSA: LightShift Chemiluminescent kit, buffer not stated

Substance | pKd
SaCYP736A167 promoter R1 (MST) | 5.32
SaCYP736A167 promoter R2 (MST) | 4.61
